Results from article PMC11417369, “DNA sequence and chromatin differentiate sequence-specific transcription factor binding in the human malaria parasite Plasmodium falciparum”.

Target: T1, AP2-G D1 (Plasmodium falciparum, UniProt Q8I5I9 2123-2245)
T1 sequence: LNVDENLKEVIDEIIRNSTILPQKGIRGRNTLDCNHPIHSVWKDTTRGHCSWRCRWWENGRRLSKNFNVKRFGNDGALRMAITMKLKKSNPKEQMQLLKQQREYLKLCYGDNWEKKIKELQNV
Experiment: gcPBM; about 25 ug protein; PBS, 1% milk, 0.2 mg/ml BSA, salmon testes DNA, 0.03% Triton X-100
Conditions: tags: N-terminal GST (pGEX-4T-1), kept; label: surface-attached array probe

Row | Binder | binding signal
1 | XGTACX_site1904 (dsDNA) DNA 1: TTGACATATAAGATATGTACTAATACACACACATAT DNA 2: ATATGTGTGTGTATTAGTACATATCTTATATGTCAA | 11.2 ln median PBM intensity, better of two orientations
2 | XGTACX_site8946 (dsDNA) DNA 1: ATTAATCCAAATGAATGTACTTAATAATGTAATTAT DNA 2: ATAATTACATTATTAAGTACATTCATTTGGATTAAT | 11.2 ln median PBM intensity, better of two orientations
3 | XGTACX_site6203 (dsDNA) DNA 1: AAAAAAAAAAAATAAAGTACTAAATAATACATTATA DNA 2: TATAATGTATTATTTAGTACTTTATTTTTTTTTTTT | 11.2 ln median PBM intensity, better of two orientations
4 | XGTACX_site5843 (dsDNA) DNA 1: ATTTCAAAATATAGCTGTACAAAAAATGTAGATATA DNA 2: TATATCTACATTTTTTGTACAGCTATATTTTGAAAT | 11.2 ln median PBM intensity, better of two orientations
5 | XGTACX_site8424 (dsDNA) DNA 1: TATTTTGTCATAGAACGTACTTATAAATATTTTTTT DNA 2: AAAAAAATATTTATAAGTACGTTCTATGACAAAATA | 11.3 ln median PBM intensity, better of two orientations
6 | XGTACX_site4080 (dsDNA) DNA 1: AATACAATTGAAAATTGTACTTTGTTTTTTATAAAT DNA 2: ATTTATAAAAAACAAAGTACAATTTTCAATTGTATT | 11.3 ln median PBM intensity, better of two orientations
7 | XGTACX_site611 (dsDNA) DNA 1: TAATTTCTTATGTATTGTACAAATAATATATGATAT DNA 2: ATATCATATATTATTTGTACAATACATAAGAAATTA | 11.3 ln median PBM intensity, better of two orientations
8 | XGTACX_site8520 (dsDNA) DNA 1: ATATGAAAAAGAACTTGTACTAAAGTGGCATATTAT DNA 2: ATAATATGCCACTTTAGTACAAGTTCTTTTTCATAT | 11.3 ln median PBM intensity, better of two orientations
9 | XGTACX_site4343 (dsDNA) DNA 1: TTTATATACTATCAACGTACAAAAGTAATAAAAATA DNA 2: TATTTTTATTACTTTTGTACGTTGATAGTATATAAA | 11.3 ln median PBM intensity, better of two orientations
10 | XGTACX_site2716 (dsDNA) DNA 1: AAAACTTTCCATGTTTGTACATAAAATATAATAATT DNA 2: AATTATTATATTTTATGTACAAACATGGAAAGTTTT | 11.3 ln median PBM intensity, better of two orientations
11 | XGTACX_site7313 (dsDNA) DNA 1: TATATACTTTATAAATGTACATATAATGTATTATTT DNA 2: AAATAATACATTATATGTACATTTATAAAGTATATA | 11.3 ln median PBM intensity, better of two orientations
12 | XGTACX_negctrl_site442 (dsDNA) DNA 1: TATTTTATTTCAAATCTTAATAATTGTAATTCTTCA DNA 2: TGAAGAATTACAATTATTAAGATTTGAAATAAAATA | 8.99 ln median PBM intensity, better of two orientations
13 | XGTACX_negctrl_site344 (dsDNA) DNA 1: TACAAAAAAATAAATAATAAAAAAAAATATATATAA DNA 2: TTATATATATTTTTTTTTATTATTTATTTTTTTGTA | 9.07 ln median PBM intensity, better of two orientations
14 | XGTACX_negctrl_site412 (dsDNA) DNA 1: AAAGGAGACAGAATAAGAATAAATATTATACATATA DNA 2: TATATGTATAATATTTATTCTTATTCTGTCTCCTTT | 9.08 ln median PBM intensity, better of two orientations
15 | XGTACX_negctrl_site51 (dsDNA) DNA 1: AAAAATAAAAAATATAAAAATATAAAAATATAAAAA DNA 2: TTTTTATATTTTTATATTTTTATATTTTTTATTTTT | 9.09 ln median PBM intensity, better of two orientations
16 | XGTACX_negctrl_site8 (dsDNA) DNA 1: TAAAACATGTTTTTATATATTATTATTATATTTATA DNA 2: TATAAATATAATAATAATATATAAAAACATGTTTTA | 9.11 ln median PBM intensity, better of two orientations

Row | Binder | binding signal
17 | XGTACX_negctrl_site79 (dsDNA) DNA 1: TACATGTATGTAATATGTTTTATTTTTTTCATCTCT DNA 2: AGAGATGAAAAAAATAAAACATATTACATACATGTA | 9.12 ln median PBM intensity, better of two orientations
18 | XGTACX_negctrl_site511 (dsDNA) DNA 1: ATGAAATCTTTAGAATATAGATGATGTTATTTAATT DNA 2: AATTAAATAACATCATCTATATTCTAAAGATTTCAT | 9.15 ln median PBM intensity, better of two orientations
19 | XGTACX_negctrl_site127 (dsDNA) DNA 1: TTTTTAAAAAAATTGATTCTTTTTCTTTTTTTTCTT DNA 2: AAGAAAAAAAAGAAAAAGAATCAATTTTTTTAAAAA | 9.16 ln median PBM intensity, better of two orientations
20 | XGTACX_negctrl_site18 (dsDNA) DNA 1: TCATAAAAAGGAATCTTTAAGATATTTTATAAGCTC DNA 2: GAGCTTATAAAATATCTTAAAGATTCCTTTTTATGA | 9.17 ln median PBM intensity, better of two orientations
21 | XGTACX_negctrl_site84 (dsDNA) DNA 1: TTCAAAAAATAAAATAATAATATATATATAAATATA DNA 2: TATATTTATATATATATTATTATTTTATTTTTTGAA | 9.17 ln median PBM intensity, better of two orientations
22 | XGTACX_negctrl_site404 (dsDNA) DNA 1: ATAAAATAAATATTTTGTTATTTATTTAATCTAATA DNA 2: TATTAGATTAAATAAATAACAAAATATTTATTTTAT | 9.22 ln median PBM intensity, better of two orientations
23 | XGTACX_negctrl_site140 (dsDNA) DNA 1: ATCTTATATCGTAGAGATTTTTTTTTTTTTTCATTT DNA 2: AAATGAAAAAAAAAAAAAATCTCTACGATATAAGAT | 9.22 ln median PBM intensity, better of two orientations
24 | XGTACX_negctrl_site478 (dsDNA) DNA 1: TACATATATATAATATATATATCATCATATTTTCTT DNA 2: AAGAAAATATGATGATATATATATTATATATATGTA | 9.22 ln median PBM intensity, better of two orientations
25 | XGTACX_negctrl_site234 (dsDNA) DNA 1: ATTATAACTAAATAAATGATATATAATATTTTATTT DNA 2: AAATAAAATATTATATATCATTTATTTAGTTATAAT | 9.29 ln median PBM intensity, better of two orientations
26 | XGTACX_negctrl_site185 (dsDNA) DNA 1: AAACAACAAAAATGATATATATAAAATTTATAATAT DNA 2: ATATTATAAATTTTATATATATCATTTTTGTTGTTT | 9.32 ln median PBM intensity, better of two orientations
27 | XGTACX_negctrl_site499 (dsDNA) DNA 1: TTTTACTATGATATTTATATATCTATATATGTATAT DNA 2: ATATACATATATAGATATATAAATATCATAGTAAAA | 9.32 ln median PBM intensity, better of two orientations
28 | XGTACX_negctrl_site100 (dsDNA) DNA 1: TTTATATTATAATATAATAATGATCTTAATTTTTTT DNA 2: AAAAAAATTAAGATCATTATTATATTATAATATAAA | 9.34 ln median PBM intensity, better of two orientations
29 | XGTACX_negctrl_site375 (dsDNA) DNA 1: AAATAAAATATATACATATATATATTATTTAGTAAT DNA 2: ATTACTAAATAATATATATATGTATATATTTTATTT | 9.35 ln median PBM intensity, better of two orientations
30 | XGTACX_negctrl_site428 (dsDNA) DNA 1: AACAAGAAAAAAAAAAAAAAAAAAAAAAAATATTTT DNA 2: AAAATATTTTTTTTTTTTTTTTTTTTTTTTCTTGTT | 9.36 ln median PBM intensity, better of two orientations
31 | XGTACX_negctrl_site416 (dsDNA) DNA 1: TATTTCAAAATAAAATAAAATATATATATATGTATA DNA 2: TATACATATATATATATTTTATTTTATTTTGAAATA | 9.38 ln median PBM intensity, better of two orientations
32 | XGTACX_negctrl_site582 (dsDNA) DNA 1: TATTAAAAGAAAAAAAAAAAAAAATTAATACATATA DNA 2: TATATGTATTAATTTTTTTTTTTTTTTCTTTTAATA | 9.38 ln median PBM intensity, better of two orientations
